Columns and labels:
[1] = target: huFcγRIIA R131 (human) (UniProt P12318); test: SPR, Biacore T200
[2] = target: human FcγRIIB (human) (UniProt P31994); test: ELISA, plate-bound human FcgRIIB soluble ectodomain, absorbance 450 nm against log(conc. ug/ml)
[3] = target: recombinant mouse GITR (plate-bound) (mouse) (UniProt O35714); test: ELISA, plate-bound recombinant mouse GITR, absorbance 450 nm against log(conc. ug/ml)
[4] = target: human FcγRIIB (human) (UniProt P31994); test: SPR, Biacore T200
[5] = target: huFcγRIIIA F158 (human) (UniProt P08637); test: SPR, Biacore T200
[6] = target: human FcγRIIIA soluble ectodomain (ELISA) (human) (UniProt P08637); test: ELISA, plate-bound human FcgRIIIA soluble ectodomain, absorbance 450 nm against log(conc. ug/ml)
[7] = target: recombinant mouse GITR (plate-bound) (mouse) (UniProt O35714); test: ELISA, plate-bound mGITR, plateau from ˜10-1.5 µg/ml as printed
[8] = target: recombinant mouse GITR (plate-bound) (mouse) (UniProt O35714); test: ELISA, plate-bound mouse GITR, delta OD against Log Ab con (ug/ml)
[9] = target: recombinant mouse GITR (plate-bound) (mouse) (UniProt O35714); test: ELISA, plate-bound mGITR, antibody at ˜10^3 µg/ml as printed
[10] = target: human FcγRIIIA soluble ectodomain (ELISA) (human) (UniProt P08637); test: ELISA, plate-bound human FcgRIIIA (receptor named in the legend paragraph 150, not on the sheet), absorbance 450 nm against log(conc. ug/ml)

Sequence of human FcγRIIB (human) (P31994 43-217): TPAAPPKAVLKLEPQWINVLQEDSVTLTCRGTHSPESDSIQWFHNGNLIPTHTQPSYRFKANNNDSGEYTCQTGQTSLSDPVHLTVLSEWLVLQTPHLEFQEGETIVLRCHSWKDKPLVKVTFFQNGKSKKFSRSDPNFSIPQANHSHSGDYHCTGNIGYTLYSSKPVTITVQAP
Sequence of huFcγRIIA R131 (human) (P12318 36-218 H167R limits assumed): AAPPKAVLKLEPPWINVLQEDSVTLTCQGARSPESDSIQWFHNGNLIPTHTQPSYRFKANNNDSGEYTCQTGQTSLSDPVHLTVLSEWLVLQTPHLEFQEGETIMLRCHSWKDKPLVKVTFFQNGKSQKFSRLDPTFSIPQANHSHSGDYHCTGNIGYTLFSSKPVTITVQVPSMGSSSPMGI
Sequence of huFcγRIIIA F158 (human) (P08637 17-208 limits assumed): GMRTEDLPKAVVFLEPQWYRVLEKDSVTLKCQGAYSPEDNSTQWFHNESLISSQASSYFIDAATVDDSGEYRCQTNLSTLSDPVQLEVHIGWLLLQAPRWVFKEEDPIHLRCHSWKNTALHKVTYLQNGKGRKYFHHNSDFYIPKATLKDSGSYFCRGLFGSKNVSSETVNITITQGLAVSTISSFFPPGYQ
Sequence of recombinant mouse GITR (plate-bound) (mouse) (O35714 20-153 limits assumed): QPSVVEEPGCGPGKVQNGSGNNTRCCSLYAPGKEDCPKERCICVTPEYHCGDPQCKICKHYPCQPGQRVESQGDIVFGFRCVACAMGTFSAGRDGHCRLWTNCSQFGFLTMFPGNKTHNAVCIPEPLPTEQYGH
Sequence of human FcγRIIIA soluble ectodomain (ELISA) (human) (P08637 17-208): as the sequence (P08637 17-208 limits assumed) above

Substance | Kd [1] [µM] | EC50 (read off the curve) [3] [µg/mL] | Kd [4] [µM] | Kd [5] [µM] | other results
chimeric anti-mouse GITR antibody (DTA-1 Fab) human IgG1-V11 | 3.84 | 0.02 |  |  | EC50 (read off the curve) [2]: 0.4 µg/mL
chimeric anti-mouse GITR antibody (DTA-1 Fab) human IgG1-GASDALIE | 0.05 | 0.01 | 0.23 | 2.23 | Fold = KD(IgG1)/KD(Fc region variant) [1]: 24.5 fold; Fold = KD(IgG1)/KD(Fc region variant) [4]: 14 fold; EC50 (read off the curve) [6]: 0.2 µg/mL
chimeric anti-mouse GITR antibody (DTA-1 Fab) afucosylated human IgG1 | 1.16 | 0.02 |  | 0.58 | 
monospecific mIgG1-N297A anti-mouse GITR antibody (DTA-1 NA) |  |  |  |  | OD450 at plateau [7]: 0.9 OD450; EC50 (read off the curve) [8]: 0.004 µg/mL; OD450 [9]: 0.6 OD450
chimeric anti-mouse GITR antibody (DTA-1 Fab) human IgG1-G236A | 0.12 | 0.02 | 4.38 |  | 
chimeric anti-mouse GITR antibody (DTA-1 Fab) afucosylated human IgG1-G236A |  | 0.01 |  |  | EC50 (read off the curve) [10]: 0.8 µg/mL

Continued, in another order:

Kd [1] [µM] | EC50 (read off the curve) [3] [µg/mL] | Kd [4] [µM] | Kd [5] [µM] | Substance | other results
 | 0.02 |  |  | chimeric anti-mouse GITR antibody (DTA-1 Fab) human IgG1-N297A | 
1.16 | 0.03 | 3.01 | 6.7 | chimeric anti-mouse GITR antibody (DTA-1 Fab) with human IgG1 | Fold = KD(IgG1)/KD(Fc region variant) [1]: 1 fold; Fold = KD(IgG1)/KD(Fc region variant) [5]: 1 fold
 | 0.02 |  |  | chimeric anti-mouse GITR antibody (DTA-1 Fab) human IgG1-GAALIE | 

From patent US20250179204A1
